Measured values from PMC10755794.

Substrate: O=C(O)C(=O)Cc1ccccc1
Experiment: purified protein
Format: biochemical, Saccharomyces cerevisiae
Conditions: ThDP, Mg2+

Protein	Km	Vmax	kcat/Km
Phenylpyruvate decarboxylase Aro10p (Aro10p^HJ) (Saccharomyces cerevisiae S288C; A377V/K527R) (protein) MAPVTIEKFVNQEERHLVSNRSATIPFGEYIFKRLLSIDTKSVFGVPGDFNLSLLEYLYSPSVESAGLRWVGTCNELNAAYAADGYSRYSNKIGCLITTYGVGELSALNGIAGSFAENVKVLHIVGVAKSIDSRSSNFSDRNLHHLVPQLHDSNFKGPNHKVYHDMVKDRVACSVAYLEDIETACDQVDNVIRDIYKYSKPGYIFVPADFADMSVTCDNLVNVPRISQQDCIVYPSENQLSDIINKITSWIYSSKTPAILGDVLTDRYGVSNFLNKLICKTGIWNFSTVMGKSVIDESNPTYMGQYNGKEGLKQVYEHFELCDLVLHFGVDINEINNGHYTFTYKPNAKIIQFHPNYIRLVDTRQGNEQMFKGINFVPILKELYKRIDVSKLSLQYDSNVTQYTNETMRLEDPTNGQSSIITQVHLQKTMPKFLNPGDVVVCETGSFQFSVRDFAFPSQLKYISQGFFLSIGMALPAALGVGIAMQDHSNAHINGGNVKEDYKPRLILFEGDGAAQMTIQELSTILRCNIPLEVIIWNNNGYTIERAIMGPTRSYNDVMSWKWTKLFEAFGDFDGKYTNSTLIQCPSKLALKLEELKNSNKRSGIELLEVKLGELDFPEQLKCMVEAAALKRNKK	86.36 ± 6.18 µM	2.11 µmol/min/mg	595000 ± 33500 M⁻¹ s⁻¹
Phenylpyruvate decarboxylase Aro10p (Aro10p^S288C) (Saccharomyces cerevisiae S288C) (protein) MAPVTIEKFVNQEERHLVSNRSATIPFGEYIFKRLLSIDTKSVFGVPGDFNLSLLEYLYSPSVESAGLRWVGTCNELNAAYAADGYSRYSNKIGCLITTYGVGELSALNGIAGSFAENVKVLHIVGVAKSIDSRSSNFSDRNLHHLVPQLHDSNFKGPNHKVYHDMVKDRVACSVAYLEDIETACDQVDNVIRDIYKYSKPGYIFVPADFADMSVTCDNLVNVPRISQQDCIVYPSENQLSDIINKITSWIYSSKTPAILGDVLTDRYGVSNFLNKLICKTGIWNFSTVMGKSVIDESNPTYMGQYNGKEGLKQVYEHFELCDLVLHFGVDINEINNGHYTFTYKPNAKIIQFHPNYIRLVDTRQGNEQMFKGINFAPILKELYKRIDVSKLSLQYDSNVTQYTNETMRLEDPTNGQSSIITQVHLQKTMPKFLNPGDVVVCETGSFQFSVRDFAFPSQLKYISQGFFLSIGMALPAALGVGIAMQDHSNAHINGGNVKEDYKPRLILFEGDGAAQMTIQELSTILKCNIPLEVIIWNNNGYTIERAIMGPTRSYNDVMSWKWTKLFEAFGDFDGKYTNSTLIQCPSKLALKLEELKNSNKRSGIELLEVKLGELDFPEQLKCMVEAAALKRNKK	102.24 ± 2.15 µM	2.26 µmol/min/mg	597000 ± 20500 M⁻¹ s⁻¹
